A short description of series [1]: In vivo plasma stability of APJ agonist conjugates, 1 mg/kg iv. Conditions: rat, male Sprague-Dawley rats, 1 mg/kg intravenously, read-out: In vivo Plasma stability t½ (converted). As for the experimental part: Conjugate was dissolved in PBS (Phosphate buffered saline) to a concentration of 1 mg/ml to form Dosing solution. Dosing solution was administered intravenously to male Sprague-Dawley rats via lateral tail vein at a volume of 1 ml/kg body weight, corresponding to a dose of 1 mg/kg. Venous blood samples were acquired from a jugular vein catheter at prescribed times after dosing and immediately placed on wet ice. These samples were centrifuged at 4C, with supernatant plasma transferred to a fresh tube for analysis.
• Standard curve preparation: Stock solution was prepared by dissolving peptide conjugate in water to 1 mg/ml. 10 uL of Stock was mixed with 990 uL rat plasma to form a working stock of 10,000 ng/ml in plasma. This was serially diluted in plasma to form standards of 5000, 1000, 500, 100, 50, 10, 5 and 1 ng/ml. • Sample and standard preparation: 25 uL plasma sample or standard was transferred to a clean plate. 150 uL acetonitrile:MeOH (1:1) containing 100 ng/ml glyburide as internal standard was added to each vial and the plate vortexed to mix the contents. The plate was centrifuged at 4000 rpm at 4 C. 125 uL supernatant was transferred to a clean plate, mixed with 50 uL water and analyzed by LC/MS.

Series [2] in a line: Material quality check of GDF15 proteins (clipping, methionine oxidation, deamidation). The series is classed as physicochemical. The text has this:
The AHA-(200-308)-hGDF15 (SEQ ID NO: 7) was designed to remove the clipping site observed within the native protein as well as to remove the potential methioinine (M1) formylation site and the N-199 deamidation site.

The next series addresses T1, OT (Homo sapiens, UniProt P30559).
T1 sequence (P30559 1-389): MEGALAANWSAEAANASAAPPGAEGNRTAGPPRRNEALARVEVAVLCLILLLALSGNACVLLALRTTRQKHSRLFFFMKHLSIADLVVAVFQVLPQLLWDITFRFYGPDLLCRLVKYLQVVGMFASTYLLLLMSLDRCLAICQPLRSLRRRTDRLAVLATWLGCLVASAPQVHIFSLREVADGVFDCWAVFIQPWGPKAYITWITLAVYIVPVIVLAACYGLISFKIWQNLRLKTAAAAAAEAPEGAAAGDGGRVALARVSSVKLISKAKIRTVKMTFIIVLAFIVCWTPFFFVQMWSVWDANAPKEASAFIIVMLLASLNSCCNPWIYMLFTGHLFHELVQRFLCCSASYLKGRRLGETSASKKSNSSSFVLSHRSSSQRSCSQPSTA
As to the kind of experiment: OT Calcium flux agonist assay (GPCRProfiler). Particulars: read-out: OT Ca^2+ Flux EC50. The series is classed as cell-based. As for the experimental part: Supplied compounds were prepared in DMSO and ultimately prepared in the Eurofins Discovery Services GPCRProfiler® Assay Buffer to concentrations that were three-fold higher than the final assay concentration. Similarly, vehicle controls and positive controls were prepared to ensure all assays were properly controlled.
All wells were prepared using the Eurofins Discovery Services GPCRProfiler® Assay Buffer. The GPCRProfiler® Assay Buffer was a modified Hanks Balanced Salt Solution (HBSS) where HBSS was supplemented to contain 20 mM HEPES and 2.5 mM Probenecid at pH7.4.
Compound(s) supplied were plated in duplicate for each concentration assayed.
Reference agonist, oxytocin, was prepared in a similar manner to serve as assay control. The reference agonist, oxytocin, was included at Emax (the concentration where the reference agonist elicited a maximal response).
The agonist assay was conducted on a […] instrument where the test compound(s), vehicle controls, and reference agonist were added to the assay plate after a fluorescence/luminescence baseline was established. […]
All plates were subjected to appropriate baseline corrections. Once baseline corrections were processed, maximum fluorescence/luminescence values were exported and data manipulated to calculate percentage activation and percentage inhibition. […]
(In general: Calcium flux is commonly read through the fluorescence of an indicator in the cells.)

Series [3] in a line: In vivo plasma stability of oxytocin conjugate, 3 mg/kg iv. Details: species or system rats. Conditions: 3 mg/kg intravenously; for half-life: rat, plasma, iv, male Sprague-Dawley rats, read-out: In vivo Plasma stability t½ (converted). As for the experimental part: Conjugate was dissolved in PBS (Phosphate buffered saline) to a concentration of 3 mg/ml to form Dosing solution. Dosing solution was administered intravenously to male Sprague-Dawley rats via lateral tail vein at a volume of 1 ml/kg body weight, corresponding to a dose of 3 mg/kg. Venous blood samples were acquired from a jugular vein catheter at prescribed times after dosing and immediately placed on wet ice. These samples were centrifuged at 4C, with supernatant plasma transferred to a fresh tube for analysis.
Standard curve preparation: Stock solution was prepared by dissolving peptide conjugate and peptide into two separate vials in dimethylsulfoxide to 1 mg/ml. 10 uL of each stock was mixed with 980 uL rat plasma to form a working stock of 10,000 ng/ml in plasma. This was serially diluted in plasma to form standards of 5000, 1000, 500, 100, 50, 10, 5, 1, 0.5, and 0.1 ng/ml. Sample and standard preparation: 25 uL plasma sample or standard was transferred to a clean plate. 150 uL acetonitrile containing 100 ng/ml glyburide as internal standard was added to each vial and the plate vortexed to mix the contents. The plate was centrifuged at 4000 rpm at 4 C. 125 uL supernatant was transferred to a clean plate, mixed with 150 uL water and analyzed by LC/MS.

Series [4] deals with Diet-induced obese male mice (C57BL/6NTac). Description: DIO mice single 0.5 mg/kg sc dose: food intake and body weight. Conditions: exp 1 / exp 2 = separate in vivo experiments. As for the experimental part: (§1) All animal studies described in this document were approved by the Novartis Institutes for Biomedical Research Animal Care and Use Committee in accordance with local and federal regulations and guidelines. Diet-induced obese male mice (C57BL/6NTac) were purchased from Taconic and fed a 60% fat diet (Research Diets D12492i) from 6-weeks of age onward. Upon arrival, mice were housed one animal per cage under a 12 h:12 h reverse light-dark cycle. Animals all received a minimum of 1 week acclimation prior to any use. Mice were typically studied between 3-4 months of age. […] On the day of study, mice were placed in fresh cages, and the old food removed. Approximately 1 h later and just prior to the dark cycle, mice received a single subcutaneous dose of either vehicle (30 mM sodium acetate, pH 4) or a lipid conjugated GDF15 analog (0.5 mg/kg). After all injections are completed, the mice were reweighed and a defined amount of food returned ([…] per mouse). In surrogate animals treated as described above, plasma was collected at the indicated times, and GDF15 levels were measured by ELISA as per the manufacturer's instructions (R&D Systems Quantikine Human GDF15 Immunoassay; DGD150). The activity and half-life of the conjugates of the invention were tested in the assay described supra.

A short description of series [5]: DIO mice single 0.5 mg/kg sc dose: plasma GDF15 levels by ELISA (PK). Particulars: exp 1 / exp 2 = separate in vivo experiments. As for the experimental part:
as §1
(In general: An ELISA detects its analyte on a solid surface through an enzyme-linked reagent.)

Where [6] appears, read: clipping site R9/N10 (for the AHA protein: none detected).

Starred links: 1 amine or outer side, 2 acyl side, 3 side chain; linkers in the order of their positions; H or OH if unused. Positions of bridges follow the written chain, without caps; N, C: chain ends. Non-standard residues stand in square brackets, D forms with d. Residues, ends and D or L forms follow the SMILES beside them. Groups on a side chain read outwards from the residue. *: point of attachment. PEG24 = NCCOCCOCCOCCOCCOCCOCCOCCOCCOCCOCCOCCOCCOCCOCCOCCOCCOCCOCCOCCOCCOCCOCCOCCOCCC(=O)O; Malonyl(C11H23,(CH2)10COOH) = CCCCCCCCCCCC(CCCCCCCCCCC(=O)O)(C(=O)O)C(=O)*; NGly(3-aminopropyl) = O=C(CN(CCCN[*:3])[*:1])[*:2]; pGlu = O=C1CC[C@@H](C(=O)O)N1; NHPhenethyl = c1ccc(CCN*)cc1; dNle = CCCC[C@@H](N)C(=O)O; Nle = CCCC[C@H](N)C(=O)O; Sar = CNCC(=O)O

The record followed here is US11752211B2, “Fatty acids and their use in conjugation to biomolecules” (NOVARTIS AG, priority 2014, dated 2023).

Usually EC50 stands for the concentration at which the effect is half-maximal.

`CCCC[C@@H](NC(=O)[C@@H]1CCCN1C(=O)CNC(=O)[C@H](CCCCN)NC(=O)[C@@H]1CSSC[C@H](NC(=O)[C@@H]2CCCN2C(=O)[C@H](CCCNC(=N)N)NC(=O)[C@@H]2CCC(=O)N2)C(=O)N[C@@H](CC(C)C)C(=O)N[C@@H](CO)C(=O)N1)C(=O)NCCc1ccccc1` [pE-R—P—C*-L-S—C*—K-G-P-(D-Nle)-NH(Phenethyl) (disulfide C^4-C^7)] ([pGlu]RPCLSCKGP[dNle]-NHPhenethyl; disulfide 4-7): the half-life in series [1] (in vivo) was 54 min.

As to “MHHHHHH-ARN-(200-308)-hGDF15: His-tagged hGDF15 with native sequence, compared with AHA variant in material quality check”, the Methionine oxidation entry in series [2] (M1) is “M1: 12.0%”. The N-199 deamidation entry in series [2] (N10) is “N10: 50.1%”. Besides, the values for the clipping result in series [2] (clipping site N10/G11) and in series [2] (setting [6]) were “N10/G11 (<1%)” and “R9/N10 (<1%)”, respectively.

Consider `CC[C@H](C)[C@@H]1NC(=O)[C@H](Cc2ccc(O)cc2)NC(=O)CNC(=O)CC[C@@H](C(=O)N(C)CC(=O)N[C@@H](CC(C)C)C(=O)NCC(N)=O)NC(=O)[C@H](CC(N)=O)NC(=O)[C@H](CCC(N)=O)NC1=O` (GYIQNE[Sar]LG-NH2; lactam N-6), for which the concentration for a half-maximal effect (EC50) on OT worked out at 7.8 nM. For the same molecule, the half-life in series [3] was 0.6 h.

`C=CCCCCCCCCCC(CCCCCCCCCCC(=O)O)(C(=O)O)C(=O)NCCOCCOCCOCCOCCOCCOCCOCCOCCOCCOCCOCCOCCOCCOCCOCCOCCOCCOCCOCCOCCOCCOCCOCCn1nnc2c1CCC1C(CC2)[C@@H]1COC(=O)NCCCC[C@@H]1NC(=O)[C@H](Cc2c[nH]cn2)NC(=O)[C@@H](NC(=O)[C@H](CC(C)C)NC(=O)[C@H](CCCNC(=N)N)NC(=O)[C@@H]2CCCN2C(=O)[C@H](CCCNC(=N)N)NC(=O)[C@@H]2CCC(=O)N2)CSSC[C@@H](C(=O)N[C@@H](Cc2ccccc2)C(=O)O)NC(=O)[C@H](CCCC)NC(=O)[C@@H]2CCCN2C(=O)CNC1=O` (stereo partly drawn) [Example 21A]: the half-life in series [1] (plasma) is 444 min.

As to `CCCC[C@@H]1NC(=O)[C@@H]2CCCN2C(=O)CNC(=O)[C@H](CCCCN)NC(=O)[C@H](Cc2cnc[nH]2)NC(=O)[C@@H](NC(=O)[C@H](CC(C)C)NC(=O)[C@H](CCCNC(=N)N)NC(=O)[C@@H]2CCCN2C(=O)[C@H](CCCNC(=N)N)NC(=O)[C@@H]2CCC(=O)N2)CSSC[C@@H](C(=O)N[C@@H](Cc2ccccc2)C(=O)O)NC1=O` [pE-R—P—R-L-C*—H—K-G-P-Nle-C*—F—OH(Disulfide C^6-C^12)] ([pGlu]RPRLCHKGP[Nle]CF-OH; disulfide 6-12), the half-life in series [1] (in vivo) is 42 min.

Consider `CCCCCCCCCCCC(CCCCCCCCCCC(=O)O)(C(=O)O)C(=O)NCCOCCOCCOCCOCCOCCOCCOCCOCCOCCOCCOCCOCCOCCOCCOCCOCCOCCOCCOCCOCCOCCOCCOCCOCCC(=O)NCCCN(CC(=O)N[C@@H](CC(C)C)C(=O)NCC(N)=O)C(=O)[C@@H]1CCC(=O)NCC(=O)N[C@@H](Cc2ccc(O)cc2)C(=O)N[C@@H]([C@@H](C)CC)C(=O)N[C@@H](CCC(N)=O)C(=O)N[C@@H](CC(N)=O)C(=O)N1` (stereo partly drawn) [Example 26A] (GYIQNE[NGly(3-aminopropyl)]([PEG24-Malonyl(C11H23,(CH2)10COOH)])LG-NH2; lactam N-6), for which, on OT, the EC50 is 8.4 nM. Further, in series [3], the half-life was 46 h. Also, in series [3] (rats), the “increase in half-life compared to unconjugated oxytocin analog” value is 75 fold.

B1: AHA-(200-308)-hGDF15: GDF15 mutant designed to remove clipping site, methionine formylation site and N-199 deamidation site (protein)
chain: AHAGDHCPLGPGRCCRLHTVRASLEDLGWADWVLSPREVQVTMCIGACPSQFRAANMHAQIKTSLHRLKPDTVPAPCCVPASYNPMVLIQKTDTGVSLQTYDDLLAKDCHCI
modifications: GDF15 mutant, Intermediate 57 AHA-(200-308)- hGDF15
For B1, the clipping result in series [2] (setting [6]) was “None”.

B2: 12: GDF15 conjugate listed in Table 1 only; no example text in the patent (conjugate, UniProt Q99988 195-308, looked up)
Growth/differentiation factor …: ARARNGDHCPLGPGRCCRLHTVRASLEDLGWADWVLSPREVQVTMCIGACPSQFRAANMHAQIKTSLHRLKPDTVPAPCCVPASYNPMVLIQKTDTGVSLQTYDDLLAKDCHCI
modifications: conjugate
B2: in series [4], the “Duration of action: Body weight (BW) reduction” value was in the range of 6 to 8 days and the “Duration of action: Food Intake (FI) reduction” value lay within 6 to 8 days.

B3: hGDF15: non-conjugated hGDF15 (protein, UniProt Q99988 195-308, looked up)
Growth/differentiation factor …: ARARNGDHCPLGPGRCCRLHTVRASLEDLGWADWVLSPREVQVTMCIGACPSQFRAANMHAQIKTSLHRLKPDTVPAPCCVPASYNPMVLIQKTDTGVSLQTYDDLLAKDCHCI
With B3, in series [4], the “Duration of action: Body weight (BW) reduction” value is given as 1 days and the “Duration of action: Food Intake (FI) reduction” value came to 1 days. In series [5], the “PK (1/2 life)” value is 1 h.
